Our source for the Kd values is patent publication US20220289850 (published 2022).

Where “and” joins values, the source holds several entries; their conditions need not be identical. Equal entries are not always repeated.

B1: Mouse hybridoma ADWA-11 Fab (antibody, V domains shown)
VH: EVQLQQSGAELVRPGAFVKLSCKASGFNIKDYYMNWVLQRPEQGLEWIGWIDPDNGNTIYDPKFQGKASITADTSSNTAYLQLSSLTSEDTAVYYCARRLLMDYWGQGTSVTVSS
VL: DIVMTQAAPSVPVTPGESVSISCRSTKSLLHFNGNTYLFWFLQRPGQSPQRLIYYMSNLASGVPDRFSGRGSGTDFTLRISRVEAEDVGVYYCMQSLEYPFTFGTGTKLEIK
B2: ADWA11 VH05/VK01 (VH05-2_VK01) Fab (antibody, V domains shown)
VH: EVQLVESGGGLVQPGGSLRLSCAASGFNIKDYYMNWVRQAPGKGLEWVGWIDPDNGNTIYDPKFQGRFTISADTSKNSAYLQMNSLRAEDTAVYYCARRLLMDYWGQGTLVTVSS
VL: DIQMTQSPSSLSASVGDRVTITCRSTKSLLHFNGNTYLFWYQQKPGKAPKRLIYYMSNLASGVPSRFSGSGSGTDFTLTISSLQPEDFATYYCMQSLEYPFTFGQGTKVEIK
B3: ADWA11 2.4 Fab (antibody, V domains shown)
VH: EVQLVESGGGLVQPGGSLRLSCAASGFNIKDYYMNWVRQAPGKGLEWVGWIDPDQGNTIYEPKFQGRFTISADTSKNSAYLQMNSLRAEDTAVYYCARRLLMDYWGQGTLVTVSS
VL: DIQMTQSPSSLSASVGDRVTITCRSTKSLSHFNGNTYLFWYQQKPGKAPKRLIYYMSSLASGVPSRFSGSGSGTDFTLTISSLQPEDFATYYCQQSLEYPFTFGGGTKVEIK

The assay has as its target T1, human integrin avb8 (human).
T1 chain 1: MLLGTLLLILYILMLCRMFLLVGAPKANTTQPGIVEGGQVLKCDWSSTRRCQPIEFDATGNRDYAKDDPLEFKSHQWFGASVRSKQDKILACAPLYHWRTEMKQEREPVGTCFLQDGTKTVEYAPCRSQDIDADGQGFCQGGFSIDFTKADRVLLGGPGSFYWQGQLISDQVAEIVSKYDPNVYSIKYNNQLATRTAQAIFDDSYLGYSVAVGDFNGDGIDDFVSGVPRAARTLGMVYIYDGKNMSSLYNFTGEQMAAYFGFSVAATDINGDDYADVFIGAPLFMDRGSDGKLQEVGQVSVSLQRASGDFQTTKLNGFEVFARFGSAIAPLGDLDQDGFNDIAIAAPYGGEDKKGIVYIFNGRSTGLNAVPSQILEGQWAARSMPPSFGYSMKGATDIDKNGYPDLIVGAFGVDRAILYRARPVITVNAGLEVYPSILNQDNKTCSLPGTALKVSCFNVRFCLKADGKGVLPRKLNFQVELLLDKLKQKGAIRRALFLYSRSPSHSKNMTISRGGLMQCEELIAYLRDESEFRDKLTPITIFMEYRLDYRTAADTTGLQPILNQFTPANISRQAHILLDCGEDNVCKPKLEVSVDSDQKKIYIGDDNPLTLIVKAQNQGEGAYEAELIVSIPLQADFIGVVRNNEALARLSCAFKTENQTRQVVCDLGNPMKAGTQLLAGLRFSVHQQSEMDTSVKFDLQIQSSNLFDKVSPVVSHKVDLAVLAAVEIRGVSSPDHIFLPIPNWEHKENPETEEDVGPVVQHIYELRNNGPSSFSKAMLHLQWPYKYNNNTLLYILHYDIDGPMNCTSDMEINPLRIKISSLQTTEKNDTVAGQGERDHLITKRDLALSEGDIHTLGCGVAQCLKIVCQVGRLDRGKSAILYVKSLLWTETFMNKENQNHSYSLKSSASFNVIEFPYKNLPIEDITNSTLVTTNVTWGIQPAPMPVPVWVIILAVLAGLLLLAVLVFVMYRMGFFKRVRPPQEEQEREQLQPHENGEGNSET
T1 chain 2: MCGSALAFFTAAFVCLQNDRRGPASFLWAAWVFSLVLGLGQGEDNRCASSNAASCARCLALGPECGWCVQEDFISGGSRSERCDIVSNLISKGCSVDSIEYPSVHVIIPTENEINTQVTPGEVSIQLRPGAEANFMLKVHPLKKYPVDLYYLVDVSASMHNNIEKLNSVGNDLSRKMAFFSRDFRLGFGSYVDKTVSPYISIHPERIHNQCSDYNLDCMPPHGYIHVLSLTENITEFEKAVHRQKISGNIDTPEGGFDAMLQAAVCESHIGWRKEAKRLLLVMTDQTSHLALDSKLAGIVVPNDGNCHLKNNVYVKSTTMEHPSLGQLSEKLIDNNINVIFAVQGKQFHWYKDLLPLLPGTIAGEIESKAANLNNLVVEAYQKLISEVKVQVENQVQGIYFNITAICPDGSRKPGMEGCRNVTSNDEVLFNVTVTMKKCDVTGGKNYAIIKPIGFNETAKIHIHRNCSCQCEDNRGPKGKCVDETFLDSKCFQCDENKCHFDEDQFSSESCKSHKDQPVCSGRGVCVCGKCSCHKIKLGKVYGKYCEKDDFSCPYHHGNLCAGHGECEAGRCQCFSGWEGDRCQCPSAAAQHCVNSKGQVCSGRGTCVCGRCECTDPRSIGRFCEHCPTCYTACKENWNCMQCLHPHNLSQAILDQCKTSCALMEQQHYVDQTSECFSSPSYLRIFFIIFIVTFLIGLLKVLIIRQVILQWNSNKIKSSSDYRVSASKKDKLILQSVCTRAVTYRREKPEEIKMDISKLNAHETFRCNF
As to the kind of experiment: SPR 25C.
One may read the Kd as the constant that tells how readily two partners part at equilibrium. Low readings indicate a tighter complex, high ones a looser complex. For B1, binding was put at a Kd of 0.536 nM.
Under B2 stands 0.209 nM and 0.118 nM; under B3, below 0.2 nM.
